In patent US20090158456:

Experiments:
[1] = test system: recombinant GST-CcHQT fusion protein (pGTPc103a_HQT)
[2] = test system: recombinant GST-CcHCT fusion protein (pGTPc103a_HCT)

Substance: AcTEV protease
- SDS PAGE gel electrophoresis and coomassie staining after AcTEV digestion [1]: generate a smaller polypeptide with the expected molecular weight of the full length proteins from each of the GST-tagged "precursor" proteins
- SDS PAGE gel electrophoresis and coomassie staining after AcTEV digestion [2]: generate a smaller polypeptide with the expected molecular weight of the full length proteins from each of the GST-tagged "precursor" proteins
